Results: the Immune Epitope Database (IEDB)

How the values were obtained:
[1] = target: HLA-B*40:01; experiment: IEDB peptide-MHC binding, purified MHC/competitive/radioactivity; filed as Kd, often an IC50 or EC50 that approximates it; ≥ and ≤ were set here for values at or beyond the usual limits of such assays
[2] = target: HLA-B*44:02; experiment: as above
[3] = target: HLA-B*18:01; experiment: as above
[4] = target: HLA-B*44:03; experiment: as above
[5] = target: HLA-B*40:02; experiment: as above
[6] = target: HLA-B*45:01; experiment: as above
[7] = target: HLA-B*08:01; experiment: IEDB peptide-MHC binding, purified MHC/direct/fluorescence; filed as Kd, often an IC50 or EC50 that approximates it; ≥ and ≤ were set here for values at or beyond the usual limits of such assays; conditions: source organism: Salmonella enterica subsp. enterica serovar Typhimurium str. LT2
[8] = target: HLA-A*26:01; experiment: IEDB peptide-MHC binding, purified MHC/competitive/fluorescence; filed as Kd, often an IC50 or EC50 that approximates it; ≥ and ≤ were set here for values at or beyond the usual limits of such assays; conditions: source organism: Bacillus anthracis str. A0488
[9] = source organism: Mammarenavirus lassaense
[10] = source organism: Mammarenavirus machupoense
[11] = source organism: Mammarenavirus guanaritoense
[12] = source organism: SARS coronavirus Tor2
[13] = source organism: Mammarenavirus brazilense

NENPGGYCL
Kd [1, 9]: 4920 nM
Kd [2, 9]: 152 nM
Kd [3, 9]: 73.1 nM
Kd [4, 9]: 259 nM
Kd [5, 9]: 278 nM
Kd [6, 9]: 178 nM

PDIGELFGL
Kd [1, 10]: 12700 nM
Kd [2, 10]: ≥ 77900 nM
Kd [3, 10]: ≥ 77500 nM
Kd [4, 10]: ≥ 66600 nM
Kd [5, 10]: ≥ 22100 nM
Kd [6, 10]: ≥ 77700 nM

PEFDWILGWT
Kd [1, 11]: ≥ 69500 nM
Kd [2, 11]: ≥ 70200 nM
Kd [3, 11]: ≥ 70400 nM
Kd [4, 11]: ≥ 28100 nM
Kd [5, 11]: ≥ 23600 nM
Kd [6, 11]: ≥ 70000 nM

QEAYYRARA
Kd [1, 12]: 19900 nM
Kd [2, 12]: 6160 nM
Kd [3, 12]: ≥ 50800 nM
Kd [4, 12]: 7320 nM
Kd [5, 12]: 1930 nM
Kd [6, 12]: 15.1 nM

QEIQLLAAVG
Kd [1, 12]: 2010 nM
Kd [2, 12]: 883 nM
Kd [3, 12]: 6880 nM
Kd [4, 12]: 440 nM
Kd [5, 12]: 18000 nM
Kd [6, 12]: 121 nM

QESLTTTSTA
Kd [1, 12]: 10200 nM
Kd [2, 12]: 7110 nM
Kd [3, 12]: ≥ 70500 nM
Kd [4, 12]: 682 nM
Kd [5, 12]: 146 nM
Kd [6, 12]: 39.6 nM

REIGSLLHGL
Kd [1, 13]: 9190 nM
Kd [2, 13]: 764 nM
Kd [3, 13]: ≥ 30400 nM
Kd [4, 13]: 878 nM
Kd [5, 13]: 5.84 nM
Kd [6, 13]: 2750 nM

RERVNINIV
Kd [1, 12]: 10700 nM
Kd [2, 12]: ≥ 35400 nM
Kd [3, 12]: ≥ 37800 nM
Kd [4, 12]: ≥ 38200 nM
Kd [5, 12]: 26 nM
Kd [6, 12]: 265 nM

TEFQSVTFTM
Kd [1, 10]: 1570 nM
Kd [2, 10]: 1160 nM
Kd [3, 10]: 32.8 nM
Kd [4, 10]: 636 nM
Kd [5, 10]: 126 nM
Kd [6, 10]: 13600 nM

TMRLRSEVL
Kd [7]: 22 nM

TVKSFLNFY
Kd [8]: 7.2 nM

VESSSKLWA
Kd [1, 12]: ≥ 42200 nM
Kd [2, 12]: 3340 nM
Kd [3, 12]: 1250 nM
Kd [4, 12]: 1600 nM
Kd [5, 12]: 3160 nM
Kd [6, 12]: 267 nM

YDFVLVGPC
Kd [1, 9]: 3340 nM
Kd [2, 9]: 1000 nM
Kd [3, 9]: ≥ 24000 nM
Kd [4, 9]: 6830 nM
Kd [5, 9]: 836 nM
Kd [6, 9]: 7220 nM

YDQLLDSSL
Kd [1, 13]: 9990 nM
Kd [2, 13]: ≥ 26500 nM
Kd [3, 13]: 15400 nM
Kd [4, 13]: ≥ 78100 nM
Kd [5, 13]: 273 nM
Kd [6, 13]: ≥ 77700 nM
